In article PMC11424477 (2024) one finds Kd data, which are given here for one molecule.

In the test the target is spike (trimeric, Wuhan) (SARS-CoV-2, UniProt P0DTC2).

B1: fibrin (protein)
chain 1: ADSGEGDFLAEGGGVR
chain 2: QGVNDNEEGFFSAR
chain 3: YVATRDNCCILDERFGSYCPTTCGIADFLSTYQTKVDKDLQSLEDILHQVENKTSEVKQLIKAIQLTYNPDESSKPNMIDAATLKSRKMLEEIMKYEASILTHDSSIRYLQEIYNSNNQKIVNLKEKVAQLEAQCQEPCKDTVQIHDITGKDCQDIANKGAKQSGLYFIKPLKANQQFLVYCEIDGSGNGWTVFQKRLDGSVDFKKNWIQYKEGFGHLSPTGTTEFWLGNEKIHLISTQSAIPYALRVELEDWNGRTSTADYAMFKVGPEADKYRLTYAYFAGGDAGDAFDGFDFGDDPSDKFFTSHNGMQFSTWDNDNDKFEGNCAEQDGSGWWMNKCHAGHLNGVYYQGGTYSKASTPNGYDNGIIWATWKTRWYSMKKTTMKIIPFNRLTIGEGQQHHLGGAKQVRPEHPAETEYDSLYPEDDL
The term Kd denotes the equilibrium constant for the complex coming apart. Read a low Kd as tighter binding. The molecule B1 showed a Kd of 390 nM.
